Several values for one entry are separate records, joined by “and”; a condition that tells them apart may be missing. Identical values can stand only once.
Experiments:
[1] = target: T1, Purified recombinant human CD26 (rhDipeptidyl peptidase IV), R&D Systems CAT #1180-SE (human, UniProt P27487 29-766); test: SPR (Biacore), CD26 preoccupied by the Fab; competitor 14D10 ascites
T1 construct: Bought recombinant protein; also called hu-CD26; soluble human CD26
Description: A specificity analysis of selected Fabs comprising pairs of variant VH and VL sequences was done. […] The analysis was done using Biacore® as described in Example 1.

[2] = target: T1, Purified recombinant human CD26 …; test: SPR (Biacore), Fab
[3] = target: T1, Purified recombinant human CD26 …; test: SPR (Biacore), Fab; remark: listed apart in the source
Protocol: (§1) Fabs produced in E. coli as described below were diluted in PBS in a concentration of ˜0.5 μM for the assay. A typical recording included a 3 minute period of injection of the Fab followed by a period of 15 minutes of dissociation, and analysis was performed based on the raw data of the binding curves accordingly.

[4] = target: T1, Purified recombinant human CD26 …; test: SPR (Biacore), Fab; remark: listed apart in the source
[5] = target: T1, Purified recombinant human CD26 …; test: SPR (Biacore), CD26 on CM5 chip, Fab injected
Protocol: as §1

[6] = target: T1, Purified recombinant human CD26 …; test: SPR (Biacore), Fab; remark: listed apart in the source
Protocol: as §1
The CD26 binding partner was as shown below.

T1 sequence (P27487 29-766 limits assumed): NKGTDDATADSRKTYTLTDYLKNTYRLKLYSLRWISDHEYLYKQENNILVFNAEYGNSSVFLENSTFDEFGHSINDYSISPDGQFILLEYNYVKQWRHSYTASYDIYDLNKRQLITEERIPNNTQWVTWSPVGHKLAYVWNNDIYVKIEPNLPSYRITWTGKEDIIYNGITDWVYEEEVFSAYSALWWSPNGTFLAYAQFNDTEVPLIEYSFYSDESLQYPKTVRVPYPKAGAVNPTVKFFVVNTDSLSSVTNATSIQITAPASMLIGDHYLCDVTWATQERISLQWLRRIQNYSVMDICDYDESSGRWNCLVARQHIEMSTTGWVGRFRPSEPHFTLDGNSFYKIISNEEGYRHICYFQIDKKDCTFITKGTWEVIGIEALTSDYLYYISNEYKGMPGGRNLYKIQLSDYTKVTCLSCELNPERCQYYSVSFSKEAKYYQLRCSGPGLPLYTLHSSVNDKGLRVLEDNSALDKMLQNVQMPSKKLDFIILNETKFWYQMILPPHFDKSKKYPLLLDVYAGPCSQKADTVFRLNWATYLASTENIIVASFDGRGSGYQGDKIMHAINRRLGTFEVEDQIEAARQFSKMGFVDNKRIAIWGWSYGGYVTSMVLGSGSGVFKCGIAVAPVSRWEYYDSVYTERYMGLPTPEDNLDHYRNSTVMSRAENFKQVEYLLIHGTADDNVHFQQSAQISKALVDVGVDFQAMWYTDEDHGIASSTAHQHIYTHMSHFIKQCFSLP

percent decrease in binding of 14D10 to CD26 [1]: ≥ 80%
Kd [2]: 1.63 nM
Kd [3]: 1.63 nM
Kd [4]: 1.63 nM and 1.6 nM
Kd [5]: 1.63 nM
Kd [6]: 1.63 nM
B1: CM03 Fab X369 (Fab, V domains shown)
VH: QVKLQESGPGLVQPSQTLSITCTVSGFSLTTYGVHWVRQSPGKGLEWLGVIWGGGRTDYDAAFISRLSISKDNSKSQVFFKMNSLQANDTAIYYCVRNRHDWFDYWGQGTTVTVSS
VL: DIQMTQSPSSLSASLGDRVTITCSASQGIRNSLNWYQQKPDGAVKLLIYYSSNLHSGVPSRFSGSGSGTDFSLTISNLEPEDIATYYCQQSIKLPFTFGSGTKLEIK
notes: Recombinant Fab made in E. coli; also called CM03 X369; CM03 (X369)
